Laboratory results: the DeepSol protein solubility set

Test: soluble on expression in E. coli; label from the status in PepcDB or PDB records
With “MNQNLLVTKRDGSTERINLDKIHRVLDWAAEGLHNVSISQVELRSHIQFYDGIKTSDIHETIIKAAADLISRDAPDYQYLAARLAIFHLRKKAYGQFEPPALYDHVVKMVEMGKYDNHLLEDYTEEEFKQMDTFIDHDRDMTFSYAAVKQLEGKYLVQNRVTGEIYESAQFLYILVAACLFSNYPRETRLQYVKRFYDAVSTFKISLPTPIMSGVRTPTRQFSSCVLIECGDSLDSINATSSAIVKYVSQRAGIGINAGRIRALGSPIRGGEAFHTGCIPFYKHFQTAVKSCSQGGVRGGAATLFYPMWHLEVESLLVLKNNRGVEGNRVRHMDYGVQINKLMYTRLLKGEDITLFSPSDVPGLYDAFFADQEEFERLYTKYEKDDSIRKQRVKAVELFSLMMQERASTGRIYIQNVDHCNTHSPFDPAIAPVRQSNLCLEIALPTKPLNDVNDENGEIALCTLSAFNLGAINNLDELEELAILAVRALDALLDYQDYPIPAAKRGAMGRRTLGIGVINFAYYLAKHGKRYSDGSANNLTHKTFEAIQYYLLKASNELAKEQGACPWFNETTYAKGILPIDTYKKDLDTIANEPLHYDWEALRESIKTHGLRNSTLSALMPSETSSQISNATNGIEPPRGYVSIKASKDGILRQVVPDYEHLHDAYELLWEMPGNDGYLQLVGIMQKFIDQSISANTNYDPSRFPSGKVPMQQLLKDLLTAYKFGVKTLYFQNTRDGAEDAQDDLVPSIQDDGCESGACKI” the “soluble on expression in E. coli” value was “soluble”. In the case of “MNQTLLSDFGTPVERVERAIDALRNGRGVMVLDDESRENEGDMVFAAEAMTLEQMALTIRHGSGIVCLCITDERRQQLDLPMMVTHNSSQFQTAFTVTIEAAEGVTTGVSAADRLTTIRKAIADNAKPADLNRPGHVFPLRGQPGGVLSRRGHTEASIDLATLAGYKPAGVLCELTNDDGSMAHAPEVIAFAKLHDMPVVTIDDLAAYLQSRAKKAS”, the “soluble on expression in E. coli” value is reported as “not soluble”. For “MNQVAPFYADHVGSILRTKGIKDAREKFQSGEITALELRKIENTEIKYIVEKQKEVGLKSITDGEFRRAWWHFDFLENLDGVEGYDAAGGIQFSKVQTKSHSVKITGPIDFTTHPFIEDFIFLKEAVGDNHVAKQTIPSPAMLHYRGDIEYQPYLDDAEKFANDLATAYQKAIQAFYDAGCRYLQLDDTSWSYLCSDEQREVVRQRGFDPETLQETYKNLINEAIKHKPADMVITMHICRGNFRSTWIAEGGYGPVAETLFGKLNIDGFFLEYDNERSGDFAPLKYVTRPDLKIVLGLITSKTGELEDEAAIKARIEEASEIVPLSQLRLSPQCGFASTEEGNILTEEEQWDKLRYVVRLANDIWGELEHHHHHH”, the “soluble on expression in E. coli” value was “soluble”. With “MNRLAHHQGIYKFFFTLGLTLQLSKPVIKHLIHIVDALTTKGFSGTLTDIHHWSFHPNHRTTLSHFFTKSPWNEERLLGKLQEWILRRIERKNQPLFVSIDDTICQKTKPSSRATHAIEGCDWHYSHKDHQSVWGHSLVWLMVHTFTQAFPFAFRLYDKKAGRSKIDLAIEMLSSIKVKLTQPVYVLMDSWYPSKTLIEACLKQGFHVIAMLKTNRILYPKGIAIQAKQFARYIEPKDTRLVTVGQERYRVYRYEGAIHGLDDAVVLLAWKADQPMTPEHLHCVLSTDRGLGDEDILRYYAQRWTIECFFRQAKDQLKLDGYRVRHVRAVKRYWAVVLLASVYSIAESRQTLSAGLELLRSRKDHSVVEFIYDAAKQGIPIDVIKKQLRIA” the “soluble on expression in E. coli” value was “not soluble”. In the case of “MNRLDQLGIRINLICNVFDKWIGQQDLNYNLFTVLYTLATEGSRTQKHIGEEWSLPKQTVSGVCKTLAGQGLIEWQEGEQDRRERLLSLTEKGKVHAAPLTENAQEFSDKVFSTFGDKRTTRLFADLDALAEVMEKTISENKK”, the “soluble on expression in E. coli” value is reported as “not soluble”. In the case of “MNRMRRSTAFSEHVTFHTVMAKRGTGSKLDREVEIQFTNLQLIGTGSFGAVYKAVLRENDEPIAIKKIKVDDRFKSRELTIMHEMDHPNIIRLLYYYVMQQENCLNFVMEFMPKDLAYVHRQFAHNDKQMPAYSIKLYMFQLLRGIGFLHLHNIVHRDIKPKNLLVDESNGILKICDFGSAKRLEKNEPNITYICSRYYRAPELIFGSKNYDTSIDTWSVGTVVGELLHNSPIFLADSAVDILALQIKAFGTPSKEDMAKWNYEYVHIPYDTITGVGIQKFIGRKLSLSTLELLNSLMKMDPKLRIKPYEALTLPYFDDLRDPHYKLPSGAPIPPLFDWLEREYIANHEIIKDIFPRSEEGDKVECL”, the “soluble on expression in E. coli” value is reported as “not soluble”. For “MNRRVPKSKSWKTRLSAGGANRTSLHGQMSRYPEVAEDYLIMQPSIRRSSGSDLMPVARFNNFKRWNSCLQHVESQPEDIREWDPPPPSSHCPQIYHKSQYSRRERSPDILTDDRGRPIPRRGMFLNAKYSEAARPPIDEDRIRHTEDVIKRMLYKGRRKESMGYYPNRNHLMRDQIRQTVYNLGVPNGYRAPEQDHFEDDYDDQPGPSNRHYGVSSHPEYYREDRWRLAEGDYEVDKGDGSRQLNKEKYLKKRRKQMIERESVDSEISEEEEEEEIYNKQTKRRRSQKTPIQHNKNRTESRLHQKEKSSSDEEVHEKSTSSRHSNVSRSSKSPYLNDDRAPSRGSKCTSSHHSTPKLLTPSPQYLKDSDDDDNWKNSIPFMSSSDGAGAGMRVRIGSAIASLPLRDDSKNSYSEVALMLLERSVKNLKNPQKMLIKEKPQTRIMNMSTSWAQQDPKKRNENDDDEIVPETEKAETSLMHDLSRIQHPQNATTVQMDQTLFTNSKLMKIDVAIAKNWLDTKMKKTLIPPPLFRSSPISEDVFKSSDRITMPSTIKGPESTAVGNRISSDGEEEDFATKQFDIDDYIARGASKIDFSKTITAPNTSFQEPSTSLFKDPTFFRQESKGNEMNIESFSERTPSKNRTSQQMEFQISTSSISKTKTNASLDSIHRRKSKPQPMLEFDAETQKMFDDAFQSDKKSTKEKYPF”, the “soluble on expression in E. coli” value was “not soluble”. With “MNRSALDFRHFVDHLRRQGDLVDVHTEVDANLEIGAITRRVYERRAPAPLFHNIRDSLPGARVLGAPAGLRADRARAHSRLALHFGLPEHSGPRDIVAMLRAAMRAEPIAPRRLERGPVQENVWLGEQVDLTRFPVPLLHEQDGGRYFGTYGFHVVQTPDGSWDSWSVGRLMLVDRNTLAGPTIPTQHIGIIREQWRRLGKPTPWAMALGAPPAALAAAGMPLPEGVSEAGYVGALVGEPVEVVRTQTNGLWVPANTEIVLEGEISLDETALEGPMGEYHGYSFPIGKPQPLFHVHALSFRDQPILPICVAGTPPEENHTIWGTMISAQLLDVAQNAGLPVDMVWCSYEAATCWAVLSIDVQRLAALGTDAAAFAARVAETVFGSHAGHLVPKLILVGNDIDVTEIDQVVWALATRAHPLHDHFAFPQIRDFPMVPYLDAEDKARGSGGRLVINCLYPEQFAGQMRAATASFRHAYPTALRRRVEERWSDYGFGDALEHHHHHH” the “soluble on expression in E. coli” value was “not soluble”. With “MNRSRDKVRCALNHQNAGSIPVDFGSTAVTGIHCRIVEALRNYYGLAPRPVKIVDAFQMLGEIDAELAEKIGVDCIGIGGPKDIFDLDTTRMHEQTTPWGQRVLVPEAMDLTPDMRGDVYVYAGGDQNYPPSAVMPKGCYFINAIERQQPIEEDRLDPEDNVEEFGLLTENDLAYYCAEADKAYQTGRAVVASFGGTALGDVAFVPGMGLKQPKGIRSVVEWYMSTAMRQDYLHQVFEKEIDIAIANYEKLWAALGDKIDVVLTCGTDFGSQESQFCSIDTFRELWLPHYRRMNDWIHQHTTWKIFKHSCGAIIPILPGLIEAGFDIINPVQINAKDMDSRRLKEEFGSQLTFWGGGVDTQKILPFGTPDEIRRHVMGQCEILGRDGGFVFNAVHNVQANVPVDNVVAMFDALKDISLEHHHHHH” the “soluble on expression in E. coli” value was “not soluble”. With “MNRWEGLDEFVAVAETGQFTAAAERMGVSSSHISRQVARLEERLQTRLLYRSTRRVSLSEAGQTFLQHCQRLQDARDEALRAVSDLSAEPKGLLRMTCAVAYGERFIVPLVNAFMADYPQLRVDIELSNRQLDLLHEGFDLAIRLGRLSDSRLVATRLAPRVMYLCATPEYLRRHGTPQSPAELGQFNCLIGSSDLWSFLEDGRETQHRVQGNWRCNSGQAVLDAALRGFGLCQLPDYYVIEHLRSGRLASLLEGHQPPNTAVWALYPQQRHLSPKVRQLVDYLKEGLAQSHPGLAGEKNLR” the “soluble on expression in E. coli” value was “not soluble”. In the case of “MNRWQGIIKQYKKYLPVDENTPIVTLYEGNTPLIEADNLARAIGFKGKIYLKYEGLNPTGSFKDRGMTLAISKAVEAGKRAVICASTGNTSASAAAYAARAGLRAYVLLPKGAVAIGKLSQAMIYGAKVLAIQGTFDDALNIVRKIGENFPVEIVNSVNPYRIEGQKTAAFEICDTLGEAPDYHFIPVGNAGNITAYWKGFKIYYEEGKITKLPRMMGWQAEGAAPIVKGYPIKNPQTIATAIKIGNPYSWKSALKAAQESGGKIDAVSDSEILYAYKLIASTEGVFCEPASAASVAGLIKLVREGFFKGGEVVTCTLTGNGLKDPDTAIKVCEEPITVPPDFDEVVKVLGF”, the “soluble on expression in E. coli” value is reported as “soluble”. For “MNSAKKEFEISHIFTDVSKLENGNFLLSPEEDHFNVPWDLQLYREDDHLDVYLRCTKLTENDEICAIDTEFELTLKTSNGKQMSRRVKVDFTLENIMIPAWRWSKVVSWETLLKEYLIDDSIIVEAAVMIKAMTGIPRMKLRSFEKSAQEYSDAIIAIGDEKFYVLKKFLAAHSTYFKDLLFGDFDFEQAENSEITLSDINSTDFQCLLEVLYGEPAIDEENIDGILKLAQKYNMPLRFGDVKSS”, the “soluble on expression in E. coli” value was “not soluble”. For “MNSDLALLRLLQLASPGLPVGGFTYSQGLEWAVEAGWVRGVDSFAGWQREQVHDTLACLDWPVLARLYHACQAKDAEAFGHWSRFLLANRETAELRLEEQQRGAALARLLDGWQLGQAPAWRASLELTQLGGMAWLAAHWAIPLRQLALGHGFAWLEGAVMAGVKLVPFGQQAAQTLLRDLGADLPAALDQALALGDDQLGGGLPLLAIASSRHETQYTRLFRSLEHHHHHH”, the “soluble on expression in E. coli” value was “soluble”. In the case of “MNSFVLMATVIREPELRFTKENQTPVCEFLVEFPGMRDDSPKESLKVVGWGNLANTIKETYHPGDRLIIEGRLGMNMIERQEGFKEKRAELTASRISLVDSGNGINPGELSSPPEPEAVDLSNTDDIPFLEHHHHHH”, the “soluble on expression in E. coli” value is reported as “soluble”. For “MNSLILGAARRFVGLHLRVSVNLLQNESFSSYSFSSASAADVSPKGETFKSSSFLDSLRLATKLTDKGNSDSVLDLLRSYGFTDSQISSIIRSDSRVLIDNDATSLGSKLQFLQSRGASSSELTEVVSTVPKILGKREGKSLSRYYDFIKVIIEADKSSKYEKISHSLAQGNKIRNILVLRELGVPQKRLLLLLISKSQPVCGKEKFDASLKKVVEMGFDPTTSTFVHALHMLYQMSDKTIEEKIRVYRSVGFSVDDVWAMFKKWPRSLTHSEKKVANSIETFLGLGFSRDVFMMMFKRFPPCIGYSTEAVKKKTEFLVKEMNWPVKAVASIPQVLGYSLEKRTVPRCNVIKVLMSKGLLESELPPMSSVLTSTSESFLNLYVSKHDDKQLVAELMAIFTGNRVSLTDQKARLEQ”, the “soluble on expression in E. coli” value was “soluble”. For “MNSQDAQNQVPPQKVDQEVDRLALMARAHQAIGELSDILVPLAAAFSSKGHSLYLVGGSVRDAFLGELGHDLDFTTSARPEETKAILDDYADVVWDTGIAFGTLSAEKHGQQIEITTFRSDLYDGNSRNPEVTFGDTLEGDLIRRDFKVNAMAVEIQADGELTFHDPVGGLEDLLTHTLDTPATPEQSFNDDPLRMLRAARFVSQLNFTLAPRVITAMTEMAQQITRITVERMQVELDKMILGKNPEAGIDLMVESGIAQIIYPEIPAMQMTQDEHMQHKDVYAHSLQVMRQAIDQEEDGPDLVLRWAALLHDCGKPDTRDFNEEGRVSFHQHEVVGAKLVRRRMRKLKYSKQMVGDVGQLVFLHMRFHGFSEGQWTDSAVRRYAADAGELLPRLHKLVRADCTTRNKRKAARLQATYDHLEERIAEIAAKEDLARVRPDLDGNEIMEILNIQAGPEVGKAWAFLKELRLERGPLDREVAIAELKSWWEGENNE”, the “soluble on expression in E. coli” value was “not soluble”.
